Assay results published in publication PMC3090473 (Methods (San Diego, Calif.), 2010).

B1: Un-tagged Gal3 protein (natural protein, Saccharomyces cerevisiae, UniProt P13045 1-520, looked up)
chain: MNTNVPIFSSPVRDLPRSFEQKHLAVVDAFFQTYHVKPDFIARSPGRVNLIGEHIDYCDFSVLPLAIDVDMLCAVKILDEKNPSITLTNADPKFAQRKFDLPLDGSYMAIDPSVSEWSNYFKCGLHVAHSYLKKIAPERFNNTPLVGAQIFCQSDIPTGGGLSSAFTCAAALATIRANMGKNFDISKKDLTRITAVAEHYVGVNNGGMDQATSVYGEEDHALYVEFRPKLKATPFKFPQLKNHEISFVIANTLVKSNKFETAPTNYNLRVIEVTVAANALATRYSVALPSHKDNSNSERGNLRDFMDAYYARYENQAQPWNGDIGTGIERLLKMLQLVEESFSRKKSGFTVHEASTALNCSREEFTRDYLTTFPVRFQVLKLYQRAKHVYSESLRVLKALKMMTSATFHTDEDFFTDFGRLMNESQASCDKLYECSCIETNQICSIALANGSFGSRLTGAGWGGCTIHLVPSGANGNVEQVRKALIEKFYNVRYPDLTDEELKDAIIVSKPALGTCLYEQ
B2: Un-tagged Gal80 protein (natural protein, Saccharomyces cerevisiae, UniProt P04387 1-435, looked up)
chain: MDYNKRSSVSTVPNAAPIRVGFVGLNAAKGWAIKTHYPAILQLSSQFQITALYSPKIETSIATIQRLKLSNATAFPTLESFASSSTIDMIVIAIQVASHYEVVMPLLEFSKNNPNLKYLFVEWALACSLDQAESIYKAAAERGVQTIISLQGRKSPYILRAKELISQGYIGDINSIEIAGNGGWYGYERPVKSPKYIYEIGNGVDLVTTTFGHTIDILQYMTSSYFSRINAMVFNNIPEQELIDERGNRLGQRVPKTVPDHLLFQGTLLNGNVPVSCSFKGGKPTKKFTKNLVIDIHGTKGDLKLEGDAGFAEISNLVLYYSGTRANDFPLANGQQAPLDPGYDAGKEIMEVYHLRNYNAIVGNIHRLYQSISDFHFNTKKIPELPSQFVMQGFDFEGFPTLMDALILHRLIESVYKSNMMGSTLNVSNISHYSL

Target: the molecule itself
Test: AUC

| Protein | binding result |
| --- | --- |
| B1 | binds |
| B2 | binds |
